Here are results for 2 substances from US20080076708A1.

The target in the assay is Recombinant human Interleukin-18 (r-hIL-18) (human) (UniProt Q14116). In words: cell-based or functional assay.
Chain of Recombinant human Interleukin-18 (r-hIL-18) (human) (Q14116 37-193 limits assumed): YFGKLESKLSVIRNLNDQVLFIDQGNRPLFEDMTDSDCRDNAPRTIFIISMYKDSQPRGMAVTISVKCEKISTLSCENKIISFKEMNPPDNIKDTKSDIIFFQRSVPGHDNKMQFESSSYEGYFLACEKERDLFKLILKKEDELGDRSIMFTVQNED

On to “r-hIL-18BP bulks ILNCT23 and ILNCT24 (from UniProt O95998 31-194)”, for which the Biological activity U/mL (KG-1 cells in vitro bioassay; bulk ILNCT23) worked out at 1.2e+06 U/mL, the Biological activity U/mL (KG-1 cells in vitro bioassay; bulk ILNCT24) stood at 1.01e+06 U/mL, the Specific activity U/mg (KG-1 cells in vitro bioassay; bulk ILNCT23) is 19800 U/mg and the Specific activity U/mg (KG-1 cells in vitro bioassay; bulk ILNCT24) came to 17900 U/mg.

“truncated form of r-hIL-18BP (serum-free produced drug substance batches ILNCT19-22) (from UniProt O95998 46-194)”: the Biological activity U/mL (KG-1 cells in vitro bioassay; bulk ILNCT19) stood at 949000 U/mL, the Biological activity U/mL (KG-1 cells in vitro bioassay; bulk ILNCT20) was found to be 1.23e+06 U/mL, the Biological activity U/mL (KG-1 cells in vitro bioassay; bulk ILNCT21) came out at 1.28e+06 U/mL and the Biological activity U/mL (KG-1 cells in vitro bioassay; bulk ILNCT22) turned out to be 1.35e+06 U/mL. Also, the Specific activity U/mg (KG-1 cells in vitro bioassay; bulk ILNCT19) came to 15400 U/mg, the Specific activity U/mg (KG-1 cells in vitro bioassay; bulk ILNCT20) was 21400 U/mg, the Specific activity U/mg (KG-1 cells in vitro bioassay; bulk ILNCT21) was determined as 20400 U/mg and the Specific activity U/mg (KG-1 cells in vitro bioassay; bulk ILNCT22) worked out at 22500 U/mg.
